Experimental data taken from US20230212289A1.

Each molecule was assayed against CD3 (antigen of the binding affinity table of Example 1) (UniProt P07766) (assay: kinetic fit with two-state parameters; method not given).

Row | Kd [nM] | ka2 [s⁻¹] | kd2 [s⁻¹] | koff [s⁻¹] | kon [M⁻¹ s⁻¹] | Molecule
1 | 0.622 | 0.0105 | 0.00194 | 0.138 | 3.44e+07 | OKT3-chimeric (antibody)
2 | 7.49 | 0.0282 | 0.0023 | 0.176 | 1.77e+06 | H4L1 (antibody, V domains shown) VH: QVQLQQSGAEVKKPGASVKMSCKASGYTFTRYTMHWVRQAPGQGLEWIGYINPSRGYTNYNQKFKDRVTLTTDTSISTAYMELSRLRSDDTAVYYCARYYDDHYSLDYWGQGTTLTVSS VL: DIQMTQSPSSLSASVGDRVTMTCSASSSVSYMNWYQQKPGKAPKRLIYDTSKLASGVPSRFSGSGSGTDFTLTISSLQPEDFATYYCQQWSSNPFTFGSGTKLEINR
3 | 14.7 | 0.0205 | 0.00238 | 0.264 | 1.88e+06 | H4L3 (antibody, V domains shown) VH: QVQLQQSGAEVKKPGASVKMSCKASGYTFTRYTMHWVRQAPGQGLEWIGYINPSRGYTNYNQKFKDRVTLTTDTSISTAYMELSRLRSDDTAVYYCARYYDDHYSLDYWGQGTTLTVSS VL: DIQLTQSPSSLSASVGDRVTITCSASSSVSYMNWYQQKPGKAPKLLIYDTSKLASGVPSRFSGSGSGTDYTLTISSLQPEDFATYYCQQWSSNPFTFGSGTKLEINR
4 | 8.84 | 0.00491 | 0.00243 | 0.0814 | 3.05e+06 | H3L6 (antibody, V domains shown) VH: QVQLVQSGAEVKKPGASVKMSCKASGYTFTRYTMHWVRQAPGQGLEWIGYINPSRGYTNYNQKFKDRATMTTDKSISTAYMELSRLRSDDTAVYYCARYYDDHYSLDYWGQGTTLTVSS VL: DIQMTQSPSSLSASVGDRVTITCSASSSVSYMNWYQQKPGKAPKLWIYDTSKLASGVPSRFSGSGSGTDYTLTISSLQPEDFATYYCQQWSSNPFTFGSGTKLEINR
5 | 13.9 | 0.0212 | 0.0023 | 0.248 | 1.75e+06 | H4L4 (antibody, V domains shown) VH: QVQLQQSGAEVKKPGASVKMSCKASGYTFTRYTMHWVRQAPGQGLEWIGYINPSRGYTNYNQKFKDRVTLTTDTSISTAYMELSRLRSDDTAVYYCARYYDDHYSLDYWGQGTTLTVSS VL: DIQLTQSPSSLSASVGDRVTITCSASSSVSYMNWYQQKPGKAPKLLIYDTSKLASGVPSRFSGSGSGTDFTLTISSMQPEDFATYYCQQWSSNPFTFGSGTKLEINR
6 | 0.642 | 0.0234 | 0.000671 | 0.0814 | 3.54e+06 | H2L4 (antibody, V domains shown) VH: QVQLQQSGAEVAKPGASVKVSCKASGYTFTRYTMHWVRQAPGQGLEWMGYINPSRGYTNYNQKFKDRATLTRDKSISTAYMELSRLRSDDTAVYYCARYYDDHYSLDYWGQGTTLTVSS VL: DIQLTQSPSSLSASVGDRVTITCSASSSVSYMNWYQQKPGKAPKLLIYDTSKLASGVPSRFSGSGSGTDFTLTISSMQPEDFATYYCQQWSSNPFTFGSGTKLEINR
7 | 1.16 | 0.0229 | 0.000831 | 0.155 | 4.67e+06 | H3L1 (antibody, V domains shown) VH: QVQLVQSGAEVKKPGASVKMSCKASGYTFTRYTMHWVRQAPGQGLEWIGYINPSRGYTNYNQKFKDRATMTTDKSISTAYMELSRLRSDDTAVYYCARYYDDHYSLDYWGQGTTLTVSS VL: DIQMTQSPSSLSASVGDRVTMTCSASSSVSYMNWYQQKPGKAPKRLIYDTSKLASGVPSRFSGSGSGTDFTLTISSLQPEDFATYYCQQWSSNPFTFGSGTKLEINR
8 | 1.33 | 0.0213 | 0.000744 | 0.119 | 3.03e+06 | H3L4 (antibody, V domains shown) VH: QVQLVQSGAEVKKPGASVKMSCKASGYTFTRYTMHWVRQAPGQGLEWIGYINPSRGYTNYNQKFKDRATMTTDKSISTAYMELSRLRSDDTAVYYCARYYDDHYSLDYWGQGTTLTVSS VL: DIQLTQSPSSLSASVGDRVTITCSASSSVSYMNWYQQKPGKAPKLLIYDTSKLASGVPSRFSGSGSGTDFTLTISSMQPEDFATYYCQQWSSNPFTFGSGTKLEINR
9 | 1.75 | 0.0234 | 0.000939 | 0.139 | 3.06e+06 | H3L2 (antibody, V domains shown) VH: QVQLVQSGAEVKKPGASVKMSCKASGYTFTRYTMHWVRQAPGQGLEWIGYINPSRGYTNYNQKFKDRATMTTDKSISTAYMELSRLRSDDTAVYYCARYYDDHYSLDYWGQGTTLTVSS VL: DIQMTQSPSSLSASVGDRVTMTCSASSSVSYMNWYQQKPGKAPKLLIYDTSKLASGVPSRFSGSGSGTDFTLTISSMQPEDFATYYCQQWSSNPFTFGSGTKLEINR
10 | 9.96 | 0.0041 | 0.000744 | 0.141 | 2.17e+06 | H4L5 (antibody, V domains shown) VH: QVQLQQSGAEVKKPGASVKMSCKASGYTFTRYTMHWVRQAPGQGLEWIGYINPSRGYTNYNQKFKDRVTLTTDTSISTAYMELSRLRSDDTAVYYCARYYDDHYSLDYWGQGTTLTVSS VL: DIQMTQSPSSLSASVGDRVTITCSASSSVSYMNWYQQKPGKAPKRWIYDTSKLASGVPSRFSGSGSGTDFTLTISSLQPEDFATYYCQQWSSNPFTFGSGTKLEINR
11 | 0.808 | 0.026 | 0.000779 | 0.0979 | 3.52e+06 | H2L1 (antibody, V domains shown) VH: QVQLQQSGAEVAKPGASVKVSCKASGYTFTRYTMHWVRQAPGQGLEWMGYINPSRGYTNYNQKFKDRATLTRDKSISTAYMELSRLRSDDTAVYYCARYYDDHYSLDYWGQGTTLTVSS VL: DIQMTQSPSSLSASVGDRVTMTCSASSSVSYMNWYQQKPGKAPKRLIYDTSKLASGVPSRFSGSGSGTDFTLTISSLQPEDFATYYCQQWSSNPFTFGSGTKLEINR
12 | 0.619 | 0.0228 | 0.000719 | 0.13 | 6.42e+06 | H2L3 (antibody, V domains shown) VH: QVQLQQSGAEVAKPGASVKVSCKASGYTFTRYTMHWVRQAPGQGLEWMGYINPSRGYTNYNQKFKDRATLTRDKSISTAYMELSRLRSDDTAVYYCARYYDDHYSLDYWGQGTTLTVSS VL: DIQLTQSPSSLSASVGDRVTITCSASSSVSYMNWYQQKPGKAPKLLIYDTSKLASGVPSRFSGSGSGTDYTLTISSLQPEDFATYYCQQWSSNPFTFGSGTKLEINR
13 | 2.55 | 0.0127 | 0.00369 | 0.0567 | 5.02e+06 | H2L5 (antibody, V domains shown) VH: QVQLQQSGAEVAKPGASVKVSCKASGYTFTRYTMHWVRQAPGQGLEWMGYINPSRGYTNYNQKFKDRATLTRDKSISTAYMELSRLRSDDTAVYYCARYYDDHYSLDYWGQGTTLTVSS VL: DIQMTQSPSSLSASVGDRVTITCSASSSVSYMNWYQQKPGKAPKRWIYDTSKLASGVPSRFSGSGSGTDFTLTISSLQPEDFATYYCQQWSSNPFTFGSGTKLEINR
14 | 1.38 | 0.0191 | 0.000815 | 0.402 | 1.19e+07 | H3L3 (antibody, V domains shown) VH: QVQLVQSGAEVKKPGASVKMSCKASGYTFTRYTMHWVRQAPGQGLEWIGYINPSRGYTNYNQKFKDRATMTTDKSISTAYMELSRLRSDDTAVYYCARYYDDHYSLDYWGQGTTLTVSS VL: DIQLTQSPSSLSASVGDRVTITCSASSSVSYMNWYQQKPGKAPKLLIYDTSKLASGVPSRFSGSGSGTDYTLTISSLQPEDFATYYCQQWSSNPFTFGSGTKLEINR
15 | 15.3 | 0.026 | 0.00294 | 0.217 | 1.44e+06 | H4L2 (antibody, V domains shown) VH: QVQLQQSGAEVKKPGASVKMSCKASGYTFTRYTMHWVRQAPGQGLEWIGYINPSRGYTNYNQKFKDRVTLTTDTSISTAYMELSRLRSDDTAVYYCARYYDDHYSLDYWGQGTTLTVSS VL: DIQMTQSPSSLSASVGDRVTMTCSASSSVSYMNWYQQKPGKAPKLLIYDTSKLASGVPSRFSGSGSGTDFTLTISSMQPEDFATYYCQQWSSNPFTFGSGTKLEINR
16 | 0.892 | 0.0268 | 0.000814 | 0.0986 | 3.26e+06 | H2L2 (antibody, V domains shown) VH: QVQLQQSGAEVAKPGASVKVSCKASGYTFTRYTMHWVRQAPGQGLEWMGYINPSRGYTNYNQKFKDRATLTRDKSISTAYMELSRLRSDDTAVYYCARYYDDHYSLDYWGQGTTLTVSS VL: DIQMTQSPSSLSASVGDRVTMTCSASSSVSYMNWYQQKPGKAPKLLIYDTSKLASGVPSRFSGSGSGTDFTLTISSMQPEDFATYYCQQWSSNPFTFGSGTKLEINR
17 | 5.68 | 0.0101 | 0.00581 | 0.0638 | 4.1e+06 | H2L6 (antibody, V domains shown) VH: QVQLQQSGAEVAKPGASVKVSCKASGYTFTRYTMHWVRQAPGQGLEWMGYINPSRGYTNYNQKFKDRATLTRDKSISTAYMELSRLRSDDTAVYYCARYYDDHYSLDYWGQGTTLTVSS VL: DIQMTQSPSSLSASVGDRVTITCSASSSVSYMNWYQQKPGKAPKLWIYDTSKLASGVPSRFSGSGSGTDYTLTISSLQPEDFATYYCQQWSSNPFTFGSGTKLEINR
18 | 12.4 | 0.00534 | 0.000594 | 0.251 | 2.02e+06 | H4L6 (antibody, V domains shown) VH: QVQLQQSGAEVKKPGASVKMSCKASGYTFTRYTMHWVRQAPGQGLEWIGYINPSRGYTNYNQKFKDRVTLTTDTSISTAYMELSRLRSDDTAVYYCARYYDDHYSLDYWGQGTTLTVSS VL: DIQMTQSPSSLSASVGDRVTITCSASSSVSYMNWYQQKPGKAPKLWIYDTSKLASGVPSRFSGSGSGTDYTLTISSLQPEDFATYYCQQWSSNPFTFGSGTKLEINR
19 | 7.6 | 0.00709 | 0.00496 | 0.0647 | 3.51e+06 | H3L5 (antibody, V domains shown) VH: QVQLVQSGAEVKKPGASVKMSCKASGYTFTRYTMHWVRQAPGQGLEWIGYINPSRGYTNYNQKFKDRATMTTDKSISTAYMELSRLRSDDTAVYYCARYYDDHYSLDYWGQGTTLTVSS VL: DIQMTQSPSSLSASVGDRVTITCSASSSVSYMNWYQQKPGKAPKRWIYDTSKLASGVPSRFSGSGSGTDFTLTISSLQPEDFATYYCQQWSSNPFTFGSGTKLEINR
